From the supplement of paper PMC10724198
± gives the standard deviation of the averaged measurements.

System: Saccharomyces cerevisiae
Assay: protein stability index of tFT-peptide fusion (C-terminal peptide) (PSI (0-1 scale)); higher = more stable (slower turnover)
Conditions: temperature: 30 C
Description: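 MPS profiling in S. cerevisiae of the yeast C-terminome library: the last 12 aa of each annotated ORF are fused to the C-terminus of a sfGFP-mCherry timer, after a GGGS linker. Cells are FACS-sorted into 8 mCherry/sfGFP bins and deep-sequenced. PSI runs from 0 (unstable) to 1 (stable); wild type and das1Δ backgrounds, two technical replicates each.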

[1] = genetic background: das1 deletion

Row | Sequence | protein stability index [1] | protein stability index (genetic background: wild type)
1 | KKKANIPKAKSA [HUT1 C-terminal 12 aa] | 0.706 ± 0.0094 | 0.686 ± 0.013
2 | ILAENEIEVSRG [FET5 C-terminal 12 aa] | 0.7042 ± 0.00013 | 0.705 ± 0.0081
3 | KFNLVTQRENSL [YGR025W C-terminal 12 aa] | 0.697 ± 0.021 | 0.695 ± 0.026
4 | GSPNSLLLNIGR [PHB1 C-terminal 12 aa] | 0.698 ± 0.015 | 0.719 ± 0.016
5 | LICQTESNPKIV [VPS8 C-terminal 12 aa] | 0.708 ± 0.0091 | 0.694 ± 0.036
6 | YQCSETSTPRNT [GIC1 C-terminal 12 aa] | 0.723 ± 0.025 | 0.675 ± 0.012
7 | ILMNEFAFNPKV [LEU3 C-terminal 12 aa] | 0.728 ± 0.027 | 0.708 ± 0.044
8 | DMLYDELMKTME [KSS1 C-terminal 12 aa] | 0.7032 ± 0.00096 | 0.666 ± 0.022
9 | SIIDKELENIDS [SGD1 C-terminal 12 aa] | 0.731 ± 0.027 | 0.681 ± 0.018
10 | AMDHKFFKTKFE [CKA2 C-terminal 12 aa] | 0.68817 ± 0.00016 | 0.708 ± 0.025
11 | ELLRIHNSHLRN [FOL3 C-terminal 12 aa] | 0.715 ± 0.031 | 0.709 ± 0.042
12 | KTRWQRVWDVLS [ALP1 C-terminal 12 aa] | 0.7259 ± 0.0053 | 0.207 ± 0.01
13 | RGRGALVDSDDE [ELF1 C-terminal 12 aa] | 0.713 ± 0.026 | 0.674 ± 0.046
14 | PMALFGIFAVAL [AFB1 C-terminal 12 aa] | 0.5769 ± 0.0038 | 0.596 ± 0.0014
15 | KAGEMVLKSLRR [SCP160 C-terminal 12 aa] | 0.67 ± 0.028 | 0.783 ± 0.017
16 | TGWPTGLRHQHT [YER133W-A C-terminal 12 aa] | 0.7212 ± 0.0034 | 0.695 ± 0.011
17 | DNNDLAKSSSQK [CMI7 C-terminal 12 aa] | 0.7059 ± 0.0068 | 0.66 ± 0.048
18 | DDTVQFMRRALE [EAF5 C-terminal 12 aa] | 0.665 ± 0.045 | 0.719 ± 0.044
19 | ALQVLEERMVNP [YOL107W C-terminal 12 aa] | 0.7046 ± 0.003 | 0.699 ± 0.0077
20 | PSTLIITTLLFK [YJR023C C-terminal 12 aa] | 0.618 ± 0.051 | 0.61 ± 0.017
21 | KQLQEGNRRHKL [DCI1 C-terminal 12 aa] | 0.768 ± 0.0084 | 0.808 ± 0.15

Row | Sequence | protein stability index [1] | protein stability index (genetic background: wild type)
22 | NIAPFPFFGKRR [PMD1 C-terminal 12 aa] | 0.6837 ± 0.00075 | 0.674 ± 0.02
23 | VKRNKYPPRPVH [REF2 C-terminal 12 aa] | 0.704 ± 0.023 | 0.74 ± 0.0081
24 | RYIYAYINAQVQ [YHL005C C-terminal 12 aa] | 0.502 ± 0.03 | 0.452 ± 0.0055
25 | ILTQGGHIIKKK [MNL2 C-terminal 12 aa] | 0.715 ± 0.017 | 0.6938 ± 0.0012
26 | NYPELPRLTFST [RFU1 C-terminal 12 aa] | 0.704 ± 0.018 | 0.691 ± 0.0092
27 | DDKFRRSYDVKK [ERG13 C-terminal 12 aa] | 0.731 ± 0.026 | 0.753 ± 0.12
28 | DSFVEFWGRILY [PUL4 C-terminal 12 aa] | 0.704 ± 0.033 | 0.6623 ± 0.0034
29 | KNEQDEDKWDDF [GCS1 C-terminal 12 aa] | 0.729 ± 0.031 | 0.672 ± 0.014
30 | NKRLKKILNNTK [RME1 C-terminal 12 aa] | 0.702 ± 0.014 | 0.674 ± 0.023
31 | DETIKLKDKKIK [MRPL6 C-terminal 12 aa] | 0.714 ± 0.012 | 0.655 ± 0.028
32 | LSTLGVGAAIIS [AVT1 C-terminal 12 aa] | 0.695 ± 0.024 | 0.675 ± 0.035
33 | VEKKKVLSKITL [VPH2 C-terminal 12 aa] | 0.691 ± 0.033 | 0.691 ± 0.048
34 | KKKFSFFGKRKK [PAM1 C-terminal 12 aa] | 0.684 ± 0.017 | 0.704 ± 0.048
35 | RCWVQAVFDVPQ [ABP140 C-terminal 12 aa] | 0.725 ± 0.011 | 0.691 ± 0.046
36 | NQAIQYANEFQQ [HOG1 C-terminal 12 aa] | 0.701 ± 0.022 | 0.715 ± 0.043
37 | NNNNNNNDDDDK [CTK1 C-terminal 12 aa] | 0.694 ± 0.021 | 0.691 ± 0.028
38 | LRKRLSCYMLIL [YDR114C C-terminal 12 aa] | 0.576 ± 0.013 | 0.4114 ± 0.0012
39 | ITLAELDVGDSE [CAF130 C-terminal 12 aa] | 0.703 ± 0.03 | 0.7119 ± 0.0027
40 | NQRKANDNKRRR [RRP17 C-terminal 12 aa] | 0.7188 ± 0.001 | 0.77 ± 0.058
41 | SKRVYSICHYEF [ABM1 C-terminal 12 aa] | 0.693 ± 0.018 | 0.695 ± 0.012
42 | DVDLTKSGGFKT [CKB2 C-terminal 12 aa] | 0.67664 ± 0.00023 | 0.714 ± 0.058

Row | Sequence | protein stability index [1] | protein stability index (genetic background: wild type)
43 | ELWYKSFGPHDE [APC1 C-terminal 12 aa] | 0.7 ± 0.027 | 0.7187 ± 0.0068
44 | FKITTEHGTTQQ [CRT10 C-terminal 12 aa] | 0.675 ± 0.0095 | 0.685 ± 0.031
45 | ALKKEYEAKKKA [COA3 C-terminal 12 aa] | 0.6861 ± 0.0068 | 0.664 ± 0.0072
46 | SSNTVYDNILVT [YDR034C-A C-terminal 12 aa] | 0.721 ± 0.037 | 0.724 ± 0.028
47 | YTINYETNTVEY [NUP133 C-terminal 12 aa] | 0.641 ± 0.024 | 0.6455 ± 0.0026
48 | YENEEIQRKRCI [YOR364W C-terminal 12 aa] | 0.696 ± 0.017 | 0.658 ± 0.0062
49 | ISTLKAIYNKMD [PEX9 C-terminal 12 aa] | 0.69065 ± 0.0004 | 0.672 ± 0.009
50 | FFFATQRDLKRT [YDR431W C-terminal 12 aa] | 0.715 ± 0.05 | 0.733 ± 0.019
51 | AATAKGKGKKKK [RSM27 C-terminal 12 aa] | 0.6993 ± 0.005 | 0.64475 ± 0.00021
52 | INPMPANFAELS [FAL1 C-terminal 12 aa] | 0.721 ± 0.017 | 0.689 ± 0.049
53 | TFQKAQVEAEWV [TOA1 C-terminal 12 aa] | 0.70901 ± 0.00064 | 0.692 ± 0.027
54 | GKKLKKIFGRKK [SEG1 C-terminal 12 aa] | 0.719 ± 0.006 | 0.6627 ± 0.0025
55 | EQITSSLQEASE [FSH1 C-terminal 12 aa] | 0.67 ± 0.016 | 0.656 ± 0.0082
56 | LHVVSSAYFEIQ [YEL075C C-terminal 12 aa] | 0.674 ± 0.041 | 0.626 ± 0.044
57 | ASGEYESDGSDD [RRN3 C-terminal 12 aa] | 0.677 ± 0.026 | 0.709 ± 0.063
58 | IIQKETQSAGDK [PZF1 C-terminal 12 aa] | 0.661 ± 0.013 | 0.678 ± 0.024
59 | GQSLTNTGGGCC [YPT1 C-terminal 12 aa] | 0.707 ± 0.011 | 0.6389 ± 0.00065
60 | RSLLRKSKPLQA [RPM2 C-terminal 12 aa] | 0.675 ± 0.024 | 0.639 ± 0.018
61 | SFGIGSKVFSSM [YHR063W-A C-terminal 12 aa] | 0.711 ± 0.021 | 0.695 ± 0.01
62 | NTLRISTVGQEF [PYK2 C-terminal 12 aa] | 0.7106 ± 0.0029 | 0.707 ± 0.0074
63 | DGWIPTRTDDVK [TAD1 C-terminal 12 aa] | 0.703 ± 0.008 | 0.707 ± 0.094

Row | Sequence | protein stability index [1] | protein stability index (genetic background: wild type)
64 | IATIENKFDFEI [YCR099C C-terminal 12 aa] | 0.712 ± 0.013 | 0.694 ± 0.042
65 | EEFINKLVKAMN [RPL7B C-terminal 12 aa] | 0.649 ± 0.012 | 0.6163 ± 0.0019
66 | KCEEVNDGLRWK [EHD3 C-terminal 12 aa] | 0.6964 ± 0.0049 | 0.711 ± 0.1
67 | LRNQSPFTSSNE [YKL107W C-terminal 12 aa] | 0.695 ± 0.02 | 0.682 ± 0.029
68 | IYVCGRLTNDRK [YIL171W-A C-terminal 12 aa] | 0.6871 ± 0.0066 | 0.65 ± 0.015
69 | KKNDTPKPKPLK [SFC1 C-terminal 12 aa] | 0.7063 ± 0.00074 | 0.678 ± 0.01
70 | ITNFFRVLVRLV [YER067C-A C-terminal 12 aa] | 0.526 ± 0.024 | 0.155 ± 0.0039
71 | EIALRKSGAVGS [YMR008C-A C-terminal 12 aa] | 0.689 ± 0.008 | 0.6727 ± 0.0038
72 | AFTTYRAFVEPN [PMI40 C-terminal 12 aa] | 0.72 ± 0.044 | 0.677 ± 0.0095
73 | STKFLRSFGQTI [SWP1 C-terminal 12 aa] | 0.70697 ± 0.0003 | 0.686 ± 0.012
74 | EVPGWQEYYDKL [YOR133W; YDR385W C-terminal 12 aa] | 0.72 ± 0.018 | 0.71 ± 0.016
75 | QDMMSGFLGGSK [GET4 C-terminal 12 aa] | 0.69072 ± 1.9e-05 | 0.667 ± 0.0077
76 | DSVIVVLKTPVE [SMD2 C-terminal 12 aa] | 0.67383 ± 0.00026 | 0.658 ± 0.041
77 | VESTRETGGCNC [YPT53 C-terminal 12 aa] | 0.692 ± 0.027 | 0.65486 ± 0.00056
78 | LGFIQNSTIVCQ [YMR306C-A C-terminal 12 aa] | 0.467 ± 0.028 | 0.494 ± 0.019
79 | YPVDKEGDIVLE [THP2 C-terminal 12 aa] | 0.679 ± 0.0084 | 0.662 ± 0.039
80 | LTILRISELSMN [MRPL49 C-terminal 12 aa] | 0.7053 ± 0.0034 | 0.354 ± 0.0057
81 | FGRKLKKIFGRK [SEG2 C-terminal 12 aa] | 0.675 ± 0.035 | 0.6421 ± 0.0063
82 | EAVKNDDIQIFG [BFR2 C-terminal 12 aa] | 0.6921 ± 0.0018 | 0.722 ± 0.031
